Patent US20220218614A1, “IONIZABLE CATIONIC LIPIDS AND LIPID NANOPARTICLES, AND METHODS OF SYNTHESIS AND USE THEREOF” (Tidal Therapeutics, Inc., priority 2020, published 2022)

Key:
Type in all cases: cell-based
primary human NK cells = experiment: LNP transfection of co-cultured human T cells and NK cells: NK cells; conditions: Lipid 8 LNP, 2.5 ug/mL mRNA, 24 hours
Method: CD3-depleted PBMCs were purified using magnetic-based CD3 positive selection and retaining of the negative fraction. 20 million CD3 depleted PBMCs were added to 1 well of a 6 well GREX plate in media containing 10 ng/mL IL-15 for 7 days. On day 7, each well was split in 2 and cells were cultured further in media containing 10 ng/mL IL-15 for an additional 7 days. On day 14, NK cells were concentrated to 1 million cells/mL in preparation for co-transfection with primary human T cells.
LNPs were prepared using the mixing process described in Example 6, the buffer exchange process described in Example 25. The LNPs were formulated using eGFP encoding mRNA (TriLink Biotechnologies, California, US), Lipid 8 as the ionizable lipid, and labeled with 0.01 mol % DiIC18(5)-DS (Invitrogen, Massachusetts, US). Fab-lipid conjugates generated from methods described in Example 4 while generation of Nb-conjugated differed in using 1:1:4 Nb:DSPE-SKPEG-maileimide:DSPE-2KPEG-OCH3 and a 50 kD UF membrane (Millipore Corp, Billerica, Mass. USA) for separation of Nb-conjugate from free Nb. Using methods similar to Example 12, conjugated Fabs and conjugated Nb were post-inserted at various densities (Table 41) into LNPs containing Lipid 8 and GFP mRNA with DiI dye. […]. […]
(§1) 24 hours after LNP transfection, cell culture media was aspirated from T cell and NK cell co-cultures after centrifugation. […] Following acquisition by flow cytometry, T cells and NK cells were analyzed independently using FlowJo (flow cytometry analysis software). In either CD3+ cells (T cells) or CD56+ cells (NK cells), the frequency of GFP positive events relative to GFP negative events was calculated (FIG. 64A). Additionally, the overall fluorescence of GFP was quantified by assessment of mean fluorescence intensity (MFI, FIG. 64B). […] Together, these metrics enabled quantification of LNP transfection efficiency of all targeted LNPs tested in primary human T cell and NK cell co-cultures.

primary human T cells = experiment: LNP transfection of co-cultured human T cells and NK cells: T cells; conditions: Lipid 8 LNP, 2.5 ug/mL mRNA, 24 hours
Method: Primary human T cells were purified using magnetic-based CD3 negative selection. 20 million purified T cells were activated using anti-CD3/anti-CD28 coated beads for 48 hours in media containing 100 IU/mL IL-2. Following activation, activation beads were removed, and T cells were expanded for an additional 48 hours in media containing 100 IU/mL IL-2. After the expansion period, T cells were concentrated to 1 million cells/mL in preparation for co-transfection with primary human NK cells.
LNPs were prepared using the mixing process described in Example 6, the buffer exchange process described in Example 25. […]
as §1

human whole blood = experiment: Whole blood transfection of immune cells with Fab targeted mRNA LNPs; conditions: Lipid 8 LNP, 2.5 μg/mL mCherry mRNA, 24 hours
Method: Venous blood from healthy volunteers was anti-coagulated in heparin tubes (BD Biosciences #367526) and seeded at 50 μL in a 96-well round-bottom plate. Transfection of whole blood was carried out simply by adding nanoparticles containing 5 μg/mL mRNA to the cells and co-culturing at 37° C. until the time of analysis. To assess transfection efficiency, cells were analyzed 24-hours post-transfection by flow cytometry. LNPs used (with and without post-inserted targets) at 2.5 μg/mL:RDM073.23. Cells obtained from human blood were analyzed by flow cytometry. Prior to the analysis of whole blood transfection efficiency, red blood cells were lysed twice with VersaLyse Lysing Solution (Beckman Coulter #A09777) for 10 minutes at room temperature. […]
Compensation for each fluorochrome was performed in the multicolor flow panels using positive and negative compensation beads. Fluorescence minus one (FMO) samples and unstained controls were included to determine the level of background fluorescence and to set the gates for the negative cell populations versus the positive cell populations.
All samples were acquired on a BD LSRFortessa X-20 (BD Biosciences) running […] software (Becton Dickinson). All data collected were analyzed using FlowJo 10.7.1 software and GraphPad Prism version 9.0. […]

B1: mutOKT8: non-functional mutated OKT8 Fab, SEQ ID NO: 22 and 23 (antibody)
heavy: QVQLVQSGAEDKKPGASVKVSCKASGFNIKDTYIHWVRQAPGQGLEWMGRIDPANDNTLYASKFQGRVTITADTSSNTAYMELSSLRSEDTAVYYCGRGAGAYVFDHWGQGTTVTVSSASTKGPSVFPLAPSSKSTSGGTAALGCLVKDYFPEPVTVSWNSGALTSGVHTFPAVLQSSGLYSLSSVVTVPSSSLGTQTYICNVNHKPSNTKVDKKVEPKSSDKTHTC
light: DIVMTQSPSSLSASVGDRVTITCRTSRSISAALAWYQEKPGKAPKLLIYSGSTLQSGVPSRFSGSGSGTDFTLTISSLQPEDFATYYCQQHNENPLTFGQGTKVEIKRTVAAPSVFIFPPSDEQLKSGTASVVCLLNNFYPREAKVQWKVDNALQSGNSQESVTEQDSKDSTYSLSSTLTLSKADYEKHKVYACEVTHQGLSSPVTKSFNRGES
transfection of NK cells in T/NK co-culture (% GFP, GFP MFI, DiI), in words (primary human NK cells): high % DiI and % GFP | transfection of T cells in T/NK co-culture (% GFP, GFP MFI, DiI), in words (primary human T cells): high % DiI and % GFP | % mCherry+ cells (transfection) in whole blood, in words (human whole blood): did not exhibit transfection of any of the immune cell types
